From the nanobody polyreactivity screen of Harvey et al. (2022) come the findings set out here.

This series in a line: yeast display, Sf9 membrane polyspecificity reagent, FACS + sequencing; frameworks hold sequencing errors. The essentials:
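Nanobodies came from a synthetic yeast display library in Saccharomyces cerevisiae BJ5465, induced with galactose for 36–48 hours and stained for 1 hour at 4 °C with 10% biotinylated, detergent-solubilized Sf9 membrane reagent. Cells were enriched on streptavidin microbeads and then FACS-sorted, with low and high (top ~1%) gates set on anti-HA fluorescence for expression and streptavidin fluorescence for reagent binding. Each polyreactivity label reflects the gate a clone came from. Genes were amplified by colony PCR, sequenced by MiSeq 2 × 250 and filtered by CDR length.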
For “QVQLVESGGGLVQAGGSLRLSCAASGNTFGDNAMGWYRQAPGKERELVAAISTGGNTYYADSVKGRFTISRDNAKNTVYLQMNSLKPEDTAVYYCNAKWIPDTLFGIHETEGDYWGQGTQVTVSS”, the “polyreactivity (PSR sort gate)” value was “low polyreactivity”. With “QVQLVESGGGLVQAGGSLRLSCAASGNTFGINAMGWYRQAPGKERELVASISFTGSSTYYADSVKGRFTISRDNAKNTVYLQMNSLKPEDTAVYYCNRDRITLYEYDYWGQGTQVTVSS”, the “polyreactivity (PSR sort gate)” value is on record as “low polyreactivity”. Then “QVQLVESGGGLVQAGGSLRLSCAASGNTFGLYAMGWYRQAPGKDRELVATITWSVSTYADSEKGRFTISRDNAKITVYLEMNSLKPEDTAVYFCAATTGPWYWRYVYWGQGTQVTVSS”, with “high polyreactivity”.

Regarding “QVQLVESGGGLVQAGGSLRLSCAASGNTFGNYGMGWYRQAPGKEREFVAAITSRGTSTYYADSVKGRFTISRDNAKYTVYLQMNSLKPEDTAVYYCNARPRYKYPRYDYWGQGTQVTVSS”, the “polyreactivity (PSR sort gate)” value was “high polyreactivity”. Regarding “QVQLVESGGGLVQAGGSLRLSCAASGNTFGQYTMGWYRQAPGKERELVAAISWDDSSTNYADSVKGRFTISRDNAKNTVYLQMNSLIPEDTAVYYCAKETELGTQYPYEYDYWGQGTQVTVSS”, the “polyreactivity (PSR sort gate)” value is reported as “low polyreactivity”. Regarding “QVQLVESGGGLVQAGGSLRLSCAASGNTFGRYAMGWYRQAPGKERELVASIRGSSVRTFYADSVKGRFTISRDNAKNTVYLQMNSLKPEDTAVYYCAAEVYRYYATGYGYWGQGTQVTVSS”, the “polyreactivity (PSR sort gate)” value was “high polyreactivity”.

Take “QVQLVESGGGLVQAGGSLRLSCAASGNTFGVYAMGWYRQAPGKERELVAAIRYRGGSTYYADSVKGRFTISRDKAKNTVYLQMTSLKPEETAVYYCAAVYYVQYVGRYYYWGQGTQVTVSS”: the “polyreactivity (PSR sort gate)” value was “high polyreactivity”.

As to “QVQLVESGGGLVQAGGSLRLSCAASGNTFHYYTMGWYRQAPGKERELVAAITRSAGRTYYADSVKGRFTISRDNAKTTVYLQMNSLKPEDTAVYYCATERERTMGYWGQGTQVTVSS”, the “polyreactivity (PSR sort gate)” value is on record as “high polyreactivity”. Take “QVQLVESGGGLVQAGGSLRLSCAASGNTFLWYAMGWYRQAPGKEREFVAAIRRSGASTYYADSVKGRFTISRDNAKNTVYLQMNSLKPEDTAVYYCAAKFVYWSGAVYTRYDYWGQGTQVTVSS”: the “polyreactivity (PSR sort gate)” value was “high polyreactivity”. For “QVQLVESGGGLVQAGGSLRLSCAASGNTFLWYAMGWYRQAPGKERELGAAISRGGGSTYYADSVKGRFTISRDNAKNTVYLQMNSLKPEDTAVYYCAARTYYSARSIHYREFEYWGQGTQVTVSS”, the “polyreactivity (PSR sort gate)” value is given as “high polyreactivity”. Consider “QVQLVESGGGLVQAGGSLRLSCAASGNTFNNNAMGWYRQAPGKERELVAAISGSGGSTYYADSVKGRFTISRDNAKNTVYLQMNSLKPEDTAVYYCAVRLVHGGKRYGYWGQGTQVTVSS”, for which the “polyreactivity (PSR sort gate)” value is recorded as “high polyreactivity”. The value for “QVQLVESGGGLVQAGGSLRLSCAASGNTFNPNAMGWYRQAPGKERELVAVIRFRGGSTYYADSVKGRFTISRDNAKNTVYLQMNSLKPEDTAVYYCAADFLYYYLRYYYWGQGTQVTVSS” was “high polyreactivity”; that for “QVQLVESGGGLVQAGGSLRLSCAASGNTFQSYAMGRYRQAPGKEREFVAAIRQSGGSTYYADSVKGRFTISRDTAKYTVYLQMNSLKPEATAVYYCAAYFTPRKYKPYDYWGLGTQVTVSS” was “high polyreactivity”.

Turning to “QVQLVESGGGLVQAGGSLRLSCAASGNTFRNYAMGWYRQAPGKERELVAAISWTGARTYYADSVKGRFTISRDNAKNTVYLQMNSLKPEDTAVYYCARPLQWWSPSGTVDYGYWGQGTQVTVSS”, the “polyreactivity (PSR sort gate)” value is “high polyreactivity”.

For “QVQLVESGGGLVQAGGSLRLSCAASGNTFSAYAMGWYRQAPGKERELVAAISSRGGSTYYADSVKGRFTISRDNAKNTVYLQMNSLKPEDTAVYYCAAGYRGVANRKWIYYYWGQGTQVTVSS”, the “polyreactivity (PSR sort gate)” value is given as “high polyreactivity”. Then “QVQLVESGGGLVQAGGSLRLSCAASGNTFSDYAMGWYRQAPGKERELVAAISSSGVRTYYADSVKVRFTISRDNAKNTVYLHMISLNPEDTAVYYCAADNYYYRFVAAMDYWGQGTQVTVSS”, with “high polyreactivity”. Then “QVQLVESGGGLVQAGGSLRLSCAASGNTFSSYAMGWYRQAPGKVRELVAAISRRGGSTYYADSVKRRFTISRDHAKTTVYLQMNSLKPEDTAVYYCAADGTGFRSLRYDYWGQGTQVTVSS”, with “high polyreactivity”; and “QVQLVESGGGLVQAGGSLRLSCAASGNTFSWYAMGWYRQAPGKERELVAVIRDGSTYYADSVKGRFTISRDNAKNTVYLQMNRLKPEDTAVYYCRYDIWVWWSGAYDYWGQGTQVTVSS”, with “low polyreactivity”. Regarding “QVQLVESGGGLVQAGGSLRLSCAASGNTFTFNAMGWYRQAPGKERELVAAINRGDSTNYADSVKGRFTISRDNAKNTVYLQMNSLKPEDTAVYYCAAGTLYWNYNRYDLYYYWGQGTQVTVSS”, the “polyreactivity (PSR sort gate)” value was “high polyreactivity”.

Turning to “QVQLVESGGGLVQAGGSLRLSCAASGNTFTFYAMGWYRQAPGTERELVASITGRGGSTYYADSVKGRFTISRDNAKNTVYLQMNSLKPEDTAVYYCNADYNSFRYRPPTTRDYWGQGTQVTVSS”, the “polyreactivity (PSR sort gate)” value was “low polyreactivity”. Then “QVQLVESGGGLVQAGGSLRLSCAASGNTFTKYAMGWYRQAPGKERELVADITIGGSTYYADSVKGRFTISRDNAKNTVYLQMNSLKPEDTAVYYCNADVVVQYYFTYYRVFTYDYWGQGTQVTVSS”, with “low polyreactivity”; and “QVQLVESGGGLVQAGGSLRLSCAASGNTFTKYAMGWYRQAPGKERELVAGITRGGSTNYADSVKGRFTISRDNAKNTVYLQMNSLKPEDTAVYYCNARPVYGSRFYSAVRMEYWGQGTQVNVSS”, with “low polyreactivity”.

For the sequence “QVQLVESGGGLVQAGGSLRLSCAASGNTFVPYAMGWYRQAPGKEREFVAAISSTSGSTYYADSVKGRFTISRDNAKNTVYLQMNSLTPEDTAVYYCAAANHKCSRMDYWGQGTQVTVSS”, the “polyreactivity (PSR sort gate)” value is recorded as “high polyreactivity”.

As to “QVQLVESGGGLVQAGGSLRLSCAASGNTFVPYVMGWYRQAPGKERELVAAISRRGGSTRYADSVKGRFTISRDNAKNTVYLQMNSLNPEDTAVYYCAADGYVFALQRSRGVDFGYEYWGQGTQVTVSS”, the “polyreactivity (PSR sort gate)” value is recorded as “high polyreactivity”. “QVQLVESGGGLVQAGGSLRLSCAASGNTFVQNDMGWYRQAPGKEREFVAAITWIGGSTRYADSVKGRFTISRDNAKNTVYLQMNSLKPEDTAVYYCAVKPVGWPRYRVDYWGQGTQVTVSS”: the “polyreactivity (PSR sort gate)” value was “high polyreactivity”.

For the sequence “QVQLVESGGGLVQAGGSLRLSCAASGNTFVQNTMGWYRPATGKETELVAAISTRGGSTYYADSLKGRFTISRDNAKNTVYLQMNSLKPVDTAVYYCAARSKVRRSYDYWGQGTQVTVSS”, the “polyreactivity (PSR sort gate)” value is on record as “high polyreactivity”.

As for “QVQLVESGGGLVQAGGSLRLSCAASGNTFVTKAMGWYRQAPGKERELVAAINSSGGSTYYADSVKGRFTISRDNAKNTVYLQMNSLKPEDTAVYYCAADPLGITSGYGYWGQGTQVTVSS”, the “polyreactivity (PSR sort gate)” value was “low polyreactivity”. As to “QVQLVESGGGLVQAGGSLRLSCAASGNTFVTYTMGWYRQAPGKERELVADISSGGSTYYADSVKGRFTISRDNAKNTVYLQMNSLKPEDTAVYYCAVQQAVFRSYYIYHRYYWGQGTQVTVSS”, the “polyreactivity (PSR sort gate)” value was “high polyreactivity”. The value for “QVQLVESGGGLVQAGGSLRLSCAASGNTFVYNDMGWYRQAPGKERELVADIRYSGSTYYADSVKGRFTISRDNAKNTVYLQMNSLKPEDTAVYYCAVDSYYFLKDPISYGLYYYWGQGSQVTVSS” was “low polyreactivity”. As for “QVQLVESGGGLVQAGGSLRLSCAASGNTFWGNAMGWYIQAPGKERELVAAITSGGNTNYADSVKGRFTISRDNAKNTVYLQMNSLKPEDTAVYYCNVDLKAWLPDGGSVDYWGQGTQVTVSS”, the “polyreactivity (PSR sort gate)” value is listed as “low polyreactivity”.
